# B1: scFv clone #26 (scFv)
# scFv: QAVLTQAPSASGTLGQQVTISCSGTTSNIGRNTVNWYQHLPGTAPKLLIFVSNQRPSGVPDRFSGSKSGTSASLVISGLQSEDEADYYCGAWDDSLDGMLFGGGTKLTVLGSRGGGGSGGGGSGGGGSLEMAQVQLVQSGAEVKKPGASVKVSCKASGYTFTSYGISWVRQAPGQGLEWMGWISAYNGNTNYAQKLQGRVTMTTDTSTSTAYMELRSLRSDDTAVYYCARGYYGDLDPWGQGTLVTVSSTSGQAGQ
# What was measured:
# [1] = target: SARS-CoV-2 S1 (D614G) (SARS-CoV-2), P0DTC2; details: remark: other sources report otherwise
# [2] = target: SARS-CoV-2 S1 Beta Variant (K417N, E484K, N501Y, D614G) (SARS-CoV-2), P0DTC2; details: remark: other sources report otherwise
binder,measurement,setting,value
B1,IC50,[1],1.4 nM
same,IC50,[2],2.27 nM
